This series concerns the molecule itself. As to the kind of experiment: cross-linking.

The text below walks through data of PMC5497784 (Cell metabolism, 2017).

B1: IRE1α* (cytosolic kinase and RNase domains of human IRE1α, residues 469-977) (domain or fragment, UniProt O75460 469-977, looked up)
chain: HQQQQLQHQQFQKELEKIQLLQQQQQQLPFHPPGDTAQDGELLDTSGPYSESSGTSSPSTSPRASNHSLCSGSSASKAGSSPSLEQDDGDEETSVVIVGKISFCPKDVLGHGAEGTIVYRGMFDNRDVAVKRILPECFSFADREVQLLRESDEHPNVIRYFCTEKDRQFQYIAIELCAATLQEYVEQKDFAHLGLEPITLLQQTTSGLAHLHSLNIVHRDLKPHNILISMPNAHGKIKAMISDFGLCKKLAVGRHSFSRRSGVPGTEGWIAPEMLSEDCKENPTYTVDIFSAGCVFYYVISEGSHPFGKSLQRQANILLGACSLDCLHPEKHEDVIARELIEKMIAMDPQKRPSAKHVLKHPFFWSLEKQLQFFQDVSDRIEKESLDGPIVKQLERGGRAVVKMDWRENITVPLQTDLRKFRTYKGGSVRDLLRAMRNKKHHYRELPAEVRETLGSLPDDFVCYFTSRFPHLLAHTYRAMELCSHERLFQPYYFHEPPEPQPPVTPDAL
For B1, the binding result is recorded as “binds”.
